Laboratory results published in patent publication US20070196376A1 (AstraZeneca / MedImmune, published 2007).

Experiments:
[1] = molecular target: T1, human insulin-like growth factor-I (IGF-I) (human, UniProt P05019 49-118); experiment: Biacore low-resolution analysis, IGF-I
T1 construct: also called IGF1; IGF-1
Experimental: (§1) The label-free surface plasmon resonance (SPR), or Biacore, was utilized to measure the antibody affinity to the antigen. For this purpose, a high-density goat anti-human antibody surface over a CM5 Biacore chip was prepared using routine amine coupling. All the mAbs were diluted to approximately 20 μg/ml in HBS-P running buffer containing 100 gg/ml BSA. Each mAb was captured on a separate surface using a 30-second contact time at 10 μL/min., and a 5-minute wash for stabilization of the mAb baseline.
(§2) The samples were prepared in the HBS-P running buffer described above. […] Drift-corrected binding data for the 34 mAbs was prepared by subtracting the signal from a control flow cell and subtracting the baseline drift of a buffer injected just prior to each antigen injection. […] A mass transport coefficient was used in fitting the data.

[2] = molecular target: T1, human insulin-like growth factor-I …; experiment: Biacore high-resolution, mAb captured, IGF-I injected over a range of concentrations
[3] = molecular target: T2, human insulin-like growth factor-II (IGF-II) (human, UniProt P01344 25-91); experiment: cell-based or functional assay
[4] = molecular target: T1, human insulin-like growth factor-I …; experiment: cell-based or functional assay
[5] = molecular target: T2, human insulin-like growth factor-II …; experiment: cell-based or functional assay; remark: listed apart in the source
[6] = molecular target: mouse IGF-I (mouse, UniProt P05017 49-118); experiment: cell-based or functional assay
[7] = molecular target: mouse IGF-II (mouse, UniProt P09535 25-91); experiment: cell-based or functional assay
[8] = molecular target: T1, human insulin-like growth factor-I …; experiment: Biacore high-resolution, mAb captured, IGF-I injected over a range of concentrations; second value, row without label
[9] = molecular target: T1, human insulin-like growth factor-I …; experiment: Biacore low-resolution screen, mAb captured, IGF-I injected
Experimental: as §1, §2

[10] = molecular target: T2, human insulin-like growth factor-II …; experiment: Biacore low-resolution analysis, IGF-II
Experimental: as §1, §2

[11] = molecular target: T2, human insulin-like growth factor-II …; experiment: Biacore high-resolution, mAb captured, IGF-II injected over a range of concentrations
[12] = molecular target: T1, human insulin-like growth factor-I …; experiment: cell-based or functional assay; remark: listed apart in the source
[13] = molecular target: T2, human insulin-like growth factor-II …; experiment: cell-based or functional assay; remark: listed apart in the source
[14] = molecular target: T2, human insulin-like growth factor-II …; experiment: Biacore low-resolution screen, mAb captured, IGF-II injected
Experimental: as §1, §2

[15] = molecular target: T1, human insulin-like growth factor-I …; experiment: cell-based or functional assay; remark: listed apart in the source
[16] = molecular target: T2, human insulin-like growth factor-II …; experiment: cell-based or functional assay; remark: listed apart in the source
[17] = molecular target: T2, human insulin-like growth factor-II …; experiment: Biacore high-resolution, mAb captured, IGF-II injected over a range of concentrations; second value, row without label
[18] = molecular target: T2, human insulin-like growth factor-II …; experiment: Biacore low-resolution screen, mAb captured, IGF-II injected; off-rate held constant in the fit; off-rate marked with asterisk; low-resolution screen, 5-minute dissociation
Experimental: as §1, §2

[19] = molecular target: T1, human insulin-like growth factor-I …; experiment: Biacore low-resolution analysis, IGF-I; low-resolution screen, not high-resolution (294.0 pM)
Experimental: as §1, §2

| Binder | Kd [2] | EC50 (nM), n = 2, IGF-II Proliferation, BxPC3 cells [3] | Max % Inhibition (133.3 nM), n = 2, IGF-II Proliferation, BxPC3 cells [3] | Max % Inhibition (333.3 nM), n = 1, IGF-II Proliferation, BxPC3 cells [3] | % Inhibition, mean (n = 3), IGF-I Proliferation Assay, NIH3T3/hIGF-IR cells [4] | EC50 (nM), mean (n = 3), IGF-I Proliferation Assay, NIH3T3/hIGF-IR cells [4] | % Inhibition, mean (n = 2), IGF-II Proliferation Assay, NIH3T3/hIGF-IR cells [5] | EC50 (nM), mean (n = 2), IGF-II Proliferation Assay, NIH3T3/hIGF-IR cells [5] | Mouse IGF-I EC50 (nM), n = 1, phosphorylation of hIGF-IR in NIH3T3 cells [6] | Mouse IGF-II EC50 (nM), n = 1, phosphorylation of hIGF-IR in NIH3T3 cells [7] | Kd [9] | koff [9] | kon [9] | Kd [10] | Kd [11] | EC50 (nM), n = 1, IGF-I pTYR, BxPC3 cells [12] | EC50 (nM), n = 2, IGF-I pTYR, BxPC3 cells [12] | Max % Inhibition (333.3 nM), n = 1, IGF-I pTYR, BxPC3 cells [12] | Max % Inhibition (333.3 nM), n = 2, IGF-I pTYR, BxPC3 cells [12] | EC50 (nM), n = 1, IGF-II pTYR, BxPC3 cells [13] | further results |
| --- | --- | --- | --- | --- | --- | --- | --- | --- | --- | --- | --- | --- | --- | --- | --- | --- | --- | --- | --- | --- | --- |
| mAb 7.34.1 (antibody, V domains shown, Fully human XenoMouse hybridoma mAb, lambda light chain (V1-13/JL2); also called ATCC PTA-7423) VH: QVQLQESGPGLVKPSETLSLTCTVSGGSISSYYWSWIRQPPGRGLEWIGYFFYSGYTNYNPSLKSRVTMSVDTSKNQFSLKLSSVTAADTAVYYCACITGTTKGGMDVWGQGATVTVSS VL: QSVLTQAPSVSGAPGQRVTISCTGRSSNIGAGYDVHWYQQFPGTAPKLLIYGNSNRPSGVPDRFSGSKSGTSASLAITGLQAEDEADYYCQSYDSSLSGSVFGGGTKLTVLG | 0.436 nM | 6.7 nM | 109% | 117% | 72.6% | 23.4 nM | 73.6% | 16.3 nM | 6 nM | 4 nM | 0.615 nM | 0.0032 s⁻¹ | 5.2e+06 M⁻¹ s⁻¹ | 0.06 nM | 0.164 nM | 5.9 nM | 3.8 nM | 100% | 98.5% | 2 nM | Kd [1]: 0.615 nM; EC50 (nM), n = 1, IGF-II Proliferation, BxPC3 cells [3]: 0.5 nM; Mouse IGF-I EC50 (nM), n = 2, phosphorylation of hIGF-IR in NIH3T3 cells [6]: 10.2 nM; Mouse IGF-II EC50 (nM), n = 2, phosphorylation of hIGF-IR in NIH3T3 cells [7]: 9.7 nM; Kd [8]: 0.421 nM; EC50 (nM), n = 2, IGF-II pTYR, BxPC3 cells [13]: 1.9 nM; Max % Inhibition (133.3 nM), n = 2, IGF-II pTYR, BxPC3 cells [13]: 89.7%; Max % Inhibition (333.3 nM), n = 1, IGF-II pTYR, BxPC3 cells [13]: 100%; Kd [14]: 0.06 nM; koff [14]: 0.00018 s⁻¹; kon [14]: 3e+06 M⁻¹ s⁻¹; % MAX Activation, mean (n = 2), IGF-I pTYR of hIGF-IR in NIH3T3 cells [15]: 14.2%; EC50 (nM), mean (n = 2), IGF-I pTYR of hIGF-IR in NIH3T3 cells [15]: 9.4 nM; % MAX Activation, mean (n = 2), IGF-II pTYR of hIGF-IR in NIH3T3 cells [16]: 21.5%; EC50 (nM), mean (n = 2), IGF-II pTYR of hIGF-IR in NIH3T3 cells [16]: 2.5 nM; Kd [17]: 0.162 nM |
| mAb 7.159.2 (antibody, V domains shown, Fully human XenoMouse hybridoma mAb, lambda light chain (V1-19/JL2); Sister clones 7.159.1 and 7.159.2 are said to be identical; also called 7.159.1; 7_159_1) VH: QVQLVQSGAEVKKPGASVKVSCKASGYTFTSYDINWVRQATGQGLEWMGWMNPNSGNTGYAQKFQGRVTMTRNTSISTAYMELSSLRSEDTAVYYCARDPYYYYYGMDVWGQGTTVTVSS VL: QSVLTQPPSVSAAPGQKVTISCSGSSSNIENNHVSWYQQLPGTAPKLLIYDNNKRPSGIPDRFSGSKSGTSATLGITGLQTGDEADYYCETWDTSLSAGRVFGGGTKLTVLG | 0.294 nM | 0.9 nM | 118% | 120% | 77% | 24.1 nM | 99.3% | 7.6 nM | 2.8 nM | 3.1 nM | 0.216 nM | 0.00093 s⁻¹ | 4.3e+06 M⁻¹ s⁻¹ | 0.0029 nM | 0.0019 nM | 3.3 nM | 1.6 nM | 100% | 100% | 1.6 nM | EC50 (nM), n = 1, IGF-II Proliferation, BxPC3 cells [3]: 0.8 nM; Mouse IGF-I EC50 (nM), n = 2, phosphorylation of hIGF-IR in NIH3T3 cells [6]: 5.7 nM; Mouse IGF-II EC50 (nM), n = 2, phosphorylation of hIGF-IR in NIH3T3 cells [7]: 5 nM; koff [18]: < 1e-05 s⁻¹; EC50 (nM), n = 2, IGF-II pTYR, BxPC3 cells [13]: 1.7 nM; Max % Inhibition (133.3 nM), n = 2, IGF-II pTYR, BxPC3 cells [13]: 91.2%; Max % Inhibition (333.3 nM), n = 1, IGF-II pTYR, BxPC3 cells [13]: 100%; Kd [14]: < 0.00286 nM; kon [14]: 3.5e+06 M⁻¹ s⁻¹; % MAX Activation, mean (n = 2), IGF-I pTYR of hIGF-IR in NIH3T3 cells [15]: 16.5%; EC50 (nM), mean (n = 2), IGF-I pTYR of hIGF-IR in NIH3T3 cells [15]: 7.4 nM; % MAX Activation, mean (n = 2), IGF-II pTYR of hIGF-IR in NIH3T3 cells [16]: 28.6%; EC50 (nM), mean (n = 2), IGF-II pTYR of hIGF-IR in NIH3T3 cells [16]: 3.1 nM; Kd [19]: 0.216 nM |
| mAb 7.234.2 (antibody, V domains shown, Kappa light chain (L5/JK3); also called 7.234.1; 7_234_1) VH: QLQLQESGPGLVKPSETLSLTCTVSGGSINSSSNYWGWIRQPPGKGLAWIGGIYYSGSTYYNPSLRSRVTMSVDTSKNQFSLKLSSVTAADTAVYYCARQRGHSSGWWYFDLWGRGTLVTVSS VL: DIQMTQSPSSVSASVGDRVTITCRASRGISSWLAWYQQRPGKAPKLLIYTASSLQSGVPSRFSGSGSGTDFTLTISSLQPEDFATYYCQQANSFPFTFGPGTKVDIKR | 3.76 nM | 2.6 nM | 201% | 112% | 67.3% | 40.6 nM | 62.1% | 24.3 nM | 46 nM | 36.1 nM | 0.328 nM | 0.0022 s⁻¹ | 6.7e+06 M⁻¹ s⁻¹ | 0.0453 nM | 0.295 nM | 5.1 nM | 2.9 nM | 97.3% | 91.5% | 1.9 nM | Kd [1]: 0.328 nM; EC50 (nM), n = 2, IGF-II pTYR, BxPC3 cells [13]: 2.3 nM; Max % Inhibition (133.3 nM), n = 2, IGF-II pTYR, BxPC3 cells [13]: 77.3%; Max % Inhibition (333.3 nM), n = 1, IGF-II pTYR, BxPC3 cells [13]: 98.5%; Kd [14]: 0.0453 nM; koff [14]: 0.00029 s⁻¹; kon [14]: 6.4e+06 M⁻¹ s⁻¹; % MAX Activation, mean (n = 2), IGF-I pTYR of hIGF-IR in NIH3T3 cells [15]: 21.1%; EC50 (nM), mean (n = 2), IGF-I pTYR of hIGF-IR in NIH3T3 cells [15]: 24.3 nM; % MAX Activation, mean (n = 2), IGF-II pTYR of hIGF-IR in NIH3T3 cells [16]: 21.1%; EC50 (nM), mean (n = 2), IGF-II pTYR of hIGF-IR in NIH3T3 cells [16]: 7.7 nM |
